Experimental data reported in IntAct's records for PubMed 22398447.

B1: Origin recognition complex subunit 1 (Homo sapiens), Q13415 (parent)
chain: MAHYPTRLKTRKTYSWVGRPLLDRKLHYQTYREMCVKTEGCSTEIHIQIGQFVLIEGDDDENPYVAKLLELFEDDSDPPPKKRARVQWFVRFCEVPACKRHLLGRKPGAQEIFWYDYPACDSNINAETIIGLVRVIPLAPKDVVPTNLKNEKTLFVKLSWNEKKFRPLSSELFAELNKPQESAAKCQKPVRAKSKSAESPSWTPAEHVAKRIESRHSASKSRQTPTHPLTPRARKRLELGNLGNPQMSQQTSCASLDSPGRIKRKVAFSEITSPSKRSQPDKLQTLSPALKAPEKTRETGLSYTEDDKKASPEHRIILRTRIAASKTIDIREERTLTPISGGQRSSVVPSVILKPENIKKRDAKEAKAQNEATSTPHRIRRKSSVLTMNRIRQQLRFLGNSKSDQEEKEILPAAEISDSSSDEEEASTPPLPRRAPRTVSRNLRSSLKSSLHTLTKVPKKSLKPRTPRCAAPQIRSRSLAAQEPASVLEEARLRLHVSAVPESLPCREQEFQDIYNFVESKLLDHTGGCMYISGVPGTGKTATVHEVIRCLQQAAQANDVPPFQYIEVNGMKLTEPHQVYVQILQKLTGQKATANHAAELLAKQFCTRGSPQETTVLLVDELDLLWTHKQDIMYNLFDWPTHKEARLVVLAIANTMDLPERIMMNRVSSRLGLTRMCFQPYTYSQLQQILRSRLKHLKAFEDDAIQLVARKVAALSGDARRCLDICRRATEICEFSQQKPDSPGLVTIAHSMEAVDEMFSSSYITAIKNSSVLEQSFLRAILAEFRRSGLEEATFQQIYSQHVALCRMEGLPYPTMSETMAVCSHLGSCRLLLVEPSRNDLLLRVRLNVSQDDVLYALKDE

Variants of: B1
Settings: with h4_bovin h4, P62803

Effect of a mutation on the interaction, disrupting interaction strength:
Y64A
E94A
W88A
